This assay addresses HA-Rad18 S-Box-A (human) (UniProt Q9NS91). Briefly: co-IP.

“DNA Polymerase eta (Polη) (from UniProt Q9Y253 1-713) (natural protein)” registered a percent reduction of association relative to Rad18 WT (UV-treated cells) of over 80%.
